{
  "source": "patent US8492329B2",
  "about": "“Bioactive peptides and methods of using same” (Compugen Ltd., priority 2007, dated 2013)",
  "assay_type_in_all_cases": "cell-based",
  "key": {"[1]": {"molecular_target": "T1, LGR8 (RXFP2) (Homo sapiens, UniProt Q8WXD0)", "T1 sequence (Q8WXD0 whole entry)": "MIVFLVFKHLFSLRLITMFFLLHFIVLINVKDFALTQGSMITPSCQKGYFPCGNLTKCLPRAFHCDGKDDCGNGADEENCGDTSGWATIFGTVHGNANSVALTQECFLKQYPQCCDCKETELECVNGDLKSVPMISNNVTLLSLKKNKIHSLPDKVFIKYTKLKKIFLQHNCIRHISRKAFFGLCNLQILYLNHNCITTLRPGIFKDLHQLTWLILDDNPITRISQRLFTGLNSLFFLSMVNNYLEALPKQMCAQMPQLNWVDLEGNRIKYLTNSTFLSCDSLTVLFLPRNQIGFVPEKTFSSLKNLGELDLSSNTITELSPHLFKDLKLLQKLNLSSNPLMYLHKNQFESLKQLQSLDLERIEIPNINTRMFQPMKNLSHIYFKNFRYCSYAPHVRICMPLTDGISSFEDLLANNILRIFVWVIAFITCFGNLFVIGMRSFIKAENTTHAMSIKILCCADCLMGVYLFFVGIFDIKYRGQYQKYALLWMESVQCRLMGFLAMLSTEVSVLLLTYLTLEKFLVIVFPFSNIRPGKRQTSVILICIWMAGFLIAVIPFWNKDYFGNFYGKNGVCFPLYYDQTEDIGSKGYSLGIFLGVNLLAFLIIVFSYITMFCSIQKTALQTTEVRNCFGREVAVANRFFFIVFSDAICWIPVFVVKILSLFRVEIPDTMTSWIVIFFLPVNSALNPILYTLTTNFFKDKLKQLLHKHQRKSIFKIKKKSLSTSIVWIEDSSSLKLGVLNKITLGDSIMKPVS", "test": "cAMP accumulation (Hit Hunter cAMP kit) in CHO-K1 cells transiently transfected with LGR8", "design": "expressed in transfected cells; host or cells: CHO-K1 (transient)", "conditions": "20 uM Forskolin, FIG. 2", "procedure": "The ability of Peptides to affect cAMP concentration was examined in CHO-K1 cells transiently transfected with LGR7 (RXFP1) or LGR8 (RXFP2). The experiment measured cAMP concentration in response to the addition of the peptides.\nLGR7 (RXFP1) or LGR8 (RXFP2) were transiently transfected into CHO-K1 cells as follows: Cells (12 million) were plated into T75 flasks on the day preceding transfection. Cells were transfected with a GPCR DNA and Gα16 using a lipid technique according to the manufacturer's recommendation. Cells were transfected for 5 hours, then re-plated into 96-well dishes (60,000 cells per well) and grown overnight. Transfected cells were plated into 24 wells of a 96-well plate. Cells were pre-treated with 0.5 mM IBMX (stimulation buffer) for 10 min at 37° C., then stimulated with either a positive control (Relaxin 2) or a candidate peptide (for Gs functional examination), followed by stimulation or a preincubation with 10 μM forskolin (for Gi functional examination). Following a 20 minutes stimulation by incubation with 1 μM of either positive control or the tested peptides, either with or without forskolin, intracellular cAMP was assayed using the Hit Hunter cAMP kit (DiscoveRx Corporation) according to the manufacturer's recommended protocol. Data was converted to nmol of cAMP by running a standard cAMP curve.\nRelaxin was used as a positive control. cAMP level was elevated by pre-treatment with forskolin.\nThe transfected CHO-K1 cells were treated with 10 uM of Forskolin (Applied cell sciences (ACS)) for 10 minutes and then challenged with 1 uM of H2 Relaxin (ACS) (as a positive control), 1 uM of Peptide P59C13V (P59) (SEQ ID NO: 6), and Peptide P74C13V (P74) (SEQ ID NO: 10).\nA dose response effect of P59C13V (P59) and P74C13V (P74) on CHO-K1 cells transiently transfected with LGR8 (RXFP2) was further examined (Method as above). CHO-K1 cells transiently transfected with LGR8 (RXFP2) were treated with 20 uM of Forskolin for 10 minutes and then challenged with either INSL3 (as a positive control), P59C13V (SEQ ID NO: 6) or P74C13V (P74) (SEQ ID NO: 10) at increasing concentrations from 1 nM to 10 uM."}, "[2]": {"molecular_target": "T1, LGR8 (RXFP2)", "test": "pCRE-β-gal reporter assay in Forskolin-treated CHO-K1 cells transiently transfected with LGR8", "design": "expressed in transfected cells; host or cells: CHO-K1 (transient)", "conditions": "5 uM Forskolin, FIG. 8A-B", "procedure": "The ability of P74C13V (P74) (SEQ ID NO: 10) and P59C13V (P59) and P59C13V-Amide (P59-Amide) (SEQ ID NO: 6 and 5 respectively) to activate LGR7 (RXFP1) and LGR8 (RXFP2) was further tested by testing the ability of these peptides to influence cAMP activity induced by 5 μM Forskolin in CHO-K1 cells transiently transfected with LGR7/pCRE-β-gal or LGR8/pCRE-β-gal as compared to H2 relaxin and INSL3 respectively.\nLGR8 transfected CHO-K1 cells were treated with 5 uM of Forskolin to stimulate cAMP. The cells were then challenged with increasing doses of INSL3 (as positive control), P74C13V (P74) (SEQ ID NO: 10), P59C13V with (P59-Amide) and without (P59) amide (SEQ ID NO: 5 and 6, respectively) and P59S-Amide (P59-S) (SEQ ID NO: 1). […] The results are presented as a percentage of Forskolin activity at various concentrations of the peptide (logarithmic scale). Each point represents three unrelated repeats for each experiment."}, "[3]": {"molecular_target": "T2, GPR135 (RXFP3) (Homo sapiens, UniProt Q9NSD7)", "T2 construct": "host or cells: CHO-K1 recombinant cell line (Euroscreen)", "T2 sequence (Q9NSD7 1-469)": "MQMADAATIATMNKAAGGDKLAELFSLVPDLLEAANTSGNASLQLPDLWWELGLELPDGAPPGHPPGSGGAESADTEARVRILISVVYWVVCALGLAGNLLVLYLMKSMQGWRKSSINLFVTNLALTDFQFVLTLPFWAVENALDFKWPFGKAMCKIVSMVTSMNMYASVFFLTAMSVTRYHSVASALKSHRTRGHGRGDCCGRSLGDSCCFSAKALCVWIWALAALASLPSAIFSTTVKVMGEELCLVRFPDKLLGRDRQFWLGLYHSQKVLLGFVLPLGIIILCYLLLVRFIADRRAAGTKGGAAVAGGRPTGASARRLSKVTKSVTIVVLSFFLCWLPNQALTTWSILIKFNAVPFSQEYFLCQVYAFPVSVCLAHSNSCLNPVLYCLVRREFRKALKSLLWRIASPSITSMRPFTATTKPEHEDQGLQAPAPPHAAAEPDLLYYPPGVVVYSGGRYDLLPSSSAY", "test": "cAMP HTRF assay on Euroscreen RXFP3 recombinant cells", "conditions": "increasing concentrations, 30 min; FIG. 5", "procedure": "The ability of P59C13V (SEQ ID NO: 6) and H3 Relaxin to activate CHO-K1 cells transfected by GPR135 (RXFP3), which is a non-LGR, Relaxin related receptor, was tested. The assay was performed by Euroscreen. For cAMP concentration analysis, Euroscreen cat. ES-656-A-cells (RXFP3, Euroscreen cat. ES-656-A) grown to mid-log phase in culture media without antibiotics were detached with PBS-EDTA, centrifuged and resuspended in assay buffer at a concentration of […]. The test was performed in 96 well plates. For agonist testing, 12 μl of cells (5×10^3 cells/well) were mixed with 12 μl of agonist Either H3-Relaxin or P59C13V (P59) (SEQ ID NO: 6) at increasing concentrations. The plates were then incubated for 30 min at room temperature. After addition of the lysis buffer, cAMP concentrations were estimated, according to the manufacturer specification, with the HTRF kit from Cis-Bio International (cat no 62AM2PEB).\n.Relaxin 3 Fit (Eeuroscreen) was used as a positive control. RXFP3 (GPCR135) transfected cells were challenged with increasing concentrations of Relaxin 3 (H3 Relaxin—as a positive control—[…]) or P59C13V (P59) (SEQ ID NO: 6) (1 nM-3 uM)."}},
  "data": [
    {"substance": "INSL3: Leydig insulin-like 3 peptide, high affinity ligand of LGR8, positive control (chain 1 AAATNPARYCCLSGCTQQDLLTLCPY; chain 2 PTPEMREKLCGHHFVRALVRVCGGPRWSTEA) [reference compound]", "values": [
      {"measurement": "change in cAMP, dose response, higher concentrations", "setting": "[1]; concentrations higher than 100 nM (up to 10 uM)", "result": "sharp decrease (Gi effect)"},
      {"measurement": "change in cAMP, dose response, lower concentrations", "setting": "[1]; concentrations lower than 100 nM", "result": "slight dose dependent increase"},
      {"measurement": "CRE activation pattern relative to Forskolin", "setting": "[2]", "result": "increased activation at higher concentrations"}
    ]},
    {"substance": "H3 Relaxin: Relaxin 3 (Euroscreen), ligand of RXFP3, positive control [reference compound]", "values": [
      {"measurement": "cAMP activation (Gs) of RXFP3", "setting": "[3]", "result": "strong cAMP stimulation"}
    ]}
  ]
}
